Target: the molecule itself
Assay: NMR solution structure

B1: carboxy-terminal domain (CTD) fragment of λ Ea22 (102-182) (domain or fragment, bacteriophage λ)
chain: SNEVREDGNQFLVVRHPGKTPVIKHCTGDLEEFLRQLIEQDPLVTIDIITHRYYGVGGQWVQDAGEYLHMMSDAGIRIKGEIETAV
- binding result: binds
